Experiments:
[1] = molecular target: ROR1 on JIMT-1 and A549 target cells (UniProt Q01973 30-937, limits assumed); assay: cell-based or functional assay
[2] = molecular target: T1, B7-H3 on A498 and JIMT-1 target cells (UniProt Q5ZPR3 29-534, limits assumed); assay: cell-based or functional assay
T1 sequence (looked up): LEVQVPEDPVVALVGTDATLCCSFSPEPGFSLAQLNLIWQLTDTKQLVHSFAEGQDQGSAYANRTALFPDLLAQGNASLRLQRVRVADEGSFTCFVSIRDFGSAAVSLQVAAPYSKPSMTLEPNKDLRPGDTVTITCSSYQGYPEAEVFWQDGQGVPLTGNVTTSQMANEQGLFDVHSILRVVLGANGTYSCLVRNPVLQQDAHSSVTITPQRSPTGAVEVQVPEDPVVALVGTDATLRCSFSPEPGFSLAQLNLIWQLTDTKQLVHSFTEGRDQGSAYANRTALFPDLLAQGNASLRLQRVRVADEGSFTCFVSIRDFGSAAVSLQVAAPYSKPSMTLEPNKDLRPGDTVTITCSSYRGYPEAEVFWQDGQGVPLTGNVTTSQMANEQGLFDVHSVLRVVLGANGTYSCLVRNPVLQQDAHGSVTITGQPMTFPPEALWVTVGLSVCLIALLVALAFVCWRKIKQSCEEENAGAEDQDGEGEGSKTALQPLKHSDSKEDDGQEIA

[3] = molecular target: T2, CD8 on human T cells (PBMC) (human, UniProt P01732 22-235); assay: flow cytometry on human PBMC gated CD5+/CD4- (cells carry CD8 and CD3), detection with anti-human Fc-PE
T2 construct: whole, on cells; The CD8+ (CD5+ CD4-) cells also carry CD3; also called CD5+ CD4- gated PBMC; CD8+ T cells
T2 sequence (P01732 22-235): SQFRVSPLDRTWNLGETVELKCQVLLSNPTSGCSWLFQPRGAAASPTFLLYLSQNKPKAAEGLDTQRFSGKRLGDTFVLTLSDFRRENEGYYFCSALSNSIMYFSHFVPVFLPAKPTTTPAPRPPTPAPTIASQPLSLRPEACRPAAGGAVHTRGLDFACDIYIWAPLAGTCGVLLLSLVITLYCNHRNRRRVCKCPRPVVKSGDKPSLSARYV

B1: ROR1 mAb 1/CD3 mAb 2/CD8 mAb 2 Tri-Specific Binding Molecule (other)
chain 1: QLVLTQSPSASASLGSSVKLTCTLSSGHKTDTIDWYQQQPGKAPRYLMKLEGSGSYNKGSGVPDRFGSGSSSGADRYLTISSLQSEDEADYYCGTDYPGNYLFGGGTQLTVLGGGGSGGGGEVQLVESGGGLVQPGGSLRLSCAASGFTFSTYAMNWVRQAPGKGLEWVGRIRSKYNNYATYYADSVKGRFTISRDDSKNSLYLQMNSLKTEDTAVYYCVRHGNFGNSYVSWFAYWGQGTLVTVSSGGCGGGEVAALEKEVAALEKEVAALEKEVAALEKGGGDKTHTCPPCPAPEAAGGPSVFLFPPKPKDTLMISRTPEVTCVVVDVSHEDPEVKFNWYVDGVEVHNAKTKPREEQYNSTYRVVSVLTVLHQDWLNGKEYKCKVSNKALPAPIEKTISKAKGQPREPQVYTLPPSREEMTKNQVSLWCLVKGFYPSDIAVEWESNGQPENNYKTTPPVLDSDGSFFLYSKLTVDKSRWQQGNVFSCSVMHEALHNHYTQKSLSLSPGK
chain 2: QAVVTQEPSLTVSPGGTVTLTCRSSTGAVTTSNYANWVQQKPGQAPRGLIGGTNKRAPWTPARFSGSLLGGKAALTITGAQAEDEADYYCALWYSNLWVFGGGTKLTVLGGGGSGGGGQEQLVESGGGLVQPGGSLRLSCAASGFTFSDYYMSWVRQAPGKGLEWVATIYPSSGKTYYADSVKGRFTISSDNAKNSLYLQMNSLRAEDTAVYYCARDSYADDAALFDIWGQGTTVTVSSGGCGGGKVAALKEKVAALKEKVAALKEKVAALKE
heavy: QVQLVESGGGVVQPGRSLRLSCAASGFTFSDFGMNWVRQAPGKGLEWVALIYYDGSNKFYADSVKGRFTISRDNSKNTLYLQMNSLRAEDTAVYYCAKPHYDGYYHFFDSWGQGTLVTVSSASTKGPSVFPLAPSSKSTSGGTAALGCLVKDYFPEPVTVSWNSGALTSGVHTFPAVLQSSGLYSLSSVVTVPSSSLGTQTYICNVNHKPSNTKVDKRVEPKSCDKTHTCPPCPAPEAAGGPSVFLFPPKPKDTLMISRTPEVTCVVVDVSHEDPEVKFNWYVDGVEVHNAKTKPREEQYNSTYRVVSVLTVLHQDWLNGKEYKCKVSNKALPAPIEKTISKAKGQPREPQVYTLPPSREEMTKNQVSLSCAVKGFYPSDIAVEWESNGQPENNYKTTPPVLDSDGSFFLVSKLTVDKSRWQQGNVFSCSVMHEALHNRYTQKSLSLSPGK
light: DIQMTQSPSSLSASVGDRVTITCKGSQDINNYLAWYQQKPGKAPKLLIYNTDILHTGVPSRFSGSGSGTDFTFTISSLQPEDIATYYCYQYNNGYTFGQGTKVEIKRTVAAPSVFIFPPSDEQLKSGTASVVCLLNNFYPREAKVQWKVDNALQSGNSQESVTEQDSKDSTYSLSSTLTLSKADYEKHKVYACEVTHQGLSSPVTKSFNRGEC
- EC50 (nM) of killing, CD4+ effector cells, JIMT1-luc target cells, E:T 5:1 [1]: 0.277 nM
- EC50 (nM) of killing, CD8+ effector cells, JIMT1-luc target cells, E:T 5:1 [1]: 0.0021 nM
- EC50 (nM) of killing, PanT effector cells, JIMT1-luc target cells, E:T 5:1 [1]: 0.0057 nM

B2: B7-H3 mAb 1/CD8 mAb 1/CD3 mAb 2 Tri-Specific Binding Molecule (other)
chain 1: DVQINQSPSFLAASPGETITINCRTSRSISQYLAWYQEKPGKTNKLLIYSGSTLQSGIPSRFSGSGSGTDFTLTISGLEPEDFAMYYCQQHNENPLTFGAGTKLELRGGGSGGGGQVQLVQSGAEVKKPGASVKVSCKASGYTFTSYWMQWVRQAPGQGLEWMGTIYPGDGDTRYTQKFKGRVTITADKSTSTAYMELSSLRSEDTAVYYCARRGIPRLWYFDVWGQGTTVTVSSGGCGGGEVAALEKEVAALEKEVAALEKEVAALEKGGGDKTHTCPPCPAPEAAGGPSVFLFPPKPKDTLMISRTPEVTCVVVDVSHEDPEVKFNWYVDGVEVHNAKTKPREEQYNSTYRVVSVLTVLHQDWLNGKEYKCKVSNKALPAPIEKTISKAKGQPREPQVYTLPPSREEMTKNQVSLWCLVKGFYPSDIAVEWESNGQPENNYKTTPPVLDSDGSFFLYSKLTVDKSRWQQGNVFSCSVMHEALHNHYTQKSLSLSPGK
chain 2: DIQMTQSPSSLSASVGDRVTITCRASQDISNYLNWYQQKPGKAPKLLIYYTSRLHSGVPSRFSGSGSGTDFTLTISSLQPEDIATYYCQQGNTLPPTFGGGTKLEIKGGGSGGGGEVQLQQSGAELVKPGASVKLSCTASGFNIKDTYIHFVRQRPEQGLEWIGRIDPANDNTLYASKFQGKATITADTSSNTAYMHLCSLTSGDTAVYYCGRGYGYYVFDHWGQGTTLTVSSGGCGGGKVAALKEKVAALKEKVAALKEKVAALKE
heavy: EVQLVESGGGLVQPGGSLRLSCAASGFTFSTYAMNWVRQAPGKGLEWVGRIRSKYNNYATYYADSVKDRFTISRDDSKNSLYLQMNSLKTEDTAVYYCVRHGNFGNSYVSWFAYWGQGTLVTVSSASTKGPSVFPLAPSSKSTSGGTAALGCLVKDYFPEPVTVSWNSGALTSGVHTFPAVLQSSGLYSLSSVVTVPSSSLGTQTYICNVNHKPSNTKVDKRVEPKSCDKTHTCPPCPAPEAAGGPSVFLFPPKPKDTLMISRTPEVTCVVVDVSHEDPEVKFNWYVDGVEVHNAKTKPREEQYNSTYRVVSVLTVLHQDWLNGKEYKCKVSNKALPAPIEKTISKAKGQPREPQVYTLPPSREEMTKNQVSLSCAVKGFYPSDIAVEWESNGQPENNYKTTPPVLDSDGSFFLVSKLTVDKSRWQQGNVFSCSVMHEALHNRYTQKSLSLSPGK
light: QAVVTQEPSLTVSPGGTVTLTCRSSTGAVTTSNYANWVQQKPGQAPRGLIGGTNKRAPWTPARFSGSLLGGKAALTITGAQAEDEADYYCALWYSNLWVFGGGTKLTVLGRTVAAPSVFIFPPSDEQLKSGTASVVCLLNNFYPREAKVQWKVDNALQSGNSQESVTEQDSKDSTYSLSSTLTLSKADYEKHKVYACEVTHQGLSSPVTKSFNRGEC
- EC50 (nM) of killing, CD4+ effector cells, JIMT1-luc target cells, E:T 5:1 [2]: 1.1 nM
- EC50 (nM) of killing, CD8+ effector cells, JIMT1-luc target cells, E:T 5:1 [2]: 0.412 nM
- EC50 (nM) of killing, PanT effector cells, JIMT1-luc target cells, E:T 5:1 [2]: 0.535 nM

B3: 5T4 mAb 1/CD3 mAb 2 Low/CD8 mAb 1 Tri-Specific Binding Molecule (other)
chain 1: DIQMTQSPSSLSASVGDRVTITCRASQGISNYLAWFQQKPGKAPKSLIYRANRLQSGVPSRFSGSGSGTDFTLTISSLQPEDVATYYCLQYDDFPWTFGQGTKLEIKGGGSGGGGEVQLVESGGGLVQPGGSLRLSCAASGFTFSTYAMNWVRQAPGKGLEWVGRIRSKYNNYATYYADSVKGRFTISRDDSKNSLYLQMNSLKTEDTAVYYCVRHGNFGNSYVTWFAYWGQGTLVTVSSASTKGEVAACEKEVAALEKEVAALEKEVAALEKGGGDKTHTCPPCPAPEAAGGPSVFLFPPKPKDTLMISRTPEVTCVVVDVSHEDPEVKFNWYVDGVEVHNAKTKPREEQYNSTYRVVSVLTVLHQDWLNGKEYKCKVSNKALPAPIEKTISKAKGQPREPQVYTLPPSREEMTKNQVSLWCLVKGFYPSDIAVEWESNGQPENNYKTTPPVLDSDGSFFLYSKLTVDKSRWQQGNVFSCSVMHEALHNHYTQKSLSLSPGK
chain 2: QAVVTQEPSLTVSPGGTVTLTCRSSTGAVTTSNYANWVQQKPGQAPRGLIGGTNKRAPWTPARFSGSLLGGKAALTITGAQAEDEADYYCALWYSNLWVFGGGTKLTVLGGGGSGGGGQVQLVQSGAEVKKPGASVKVSCKASGYTFTSFWMHWVRQAPGQGLEWMGRIDPNRGGTEYNEKAKSRVTMTADKSTSTAYMELSSLRSEDTAVYYCAGGNPYYPMDYWGQGTTVTVSSASTKGKVAACKEKVAALKEKVAALKEKVAALKE
heavy: EVQLQQSGAELVKPGASVKLSCTASGFNIKDTYIHFVRQRPEQGLEWIGRIDPANDNTLYASKFQGKATITADTSSNTAYMHLCSLTSGDTAVYYCGRGYGYYVFDHWGQGTTLTVSSASTKGPSVFPLAPSSKSTSGGTAALGCLVKDYFPEPVTVSWNSGALTSGVHTFPAVLQSSGLYSLSSVVTVPSSSLGTQTYICNVNHKPSNTKVDKRVEPKSCDKTHTCPPCPAPEAAGGPSVFLFPPKPKDTLMISRTPEVTCVVVDVSHEDPEVKFNWYVDGVEVHNAKTKPREEQYNSTYRVVSVLTVLHQDWLNGKEYKCKVSNKALPAPIEKTISKAKGQPREPQVYTLPPSREEMTKNQVSLSCAVKGFYPSDIAVEWESNGQPENNYKTTPPVLDSDGSFFLVSKLTVDKSRWQQGNVFSCSVMHEALHNRYTQKSLSLSPGK
light: DVQINQSPSFLAASPGETITINCRTSRSISQYLAWYQEKPGKTNKLLIYSGSTLQSGIPSRFSGSGSGTDFTLTISGLEPEDFAMYYCQQHNENPLTFGAGTKLELRRTVAAPSVFIFPPSDEQLKSGTASVVCLLNNFYPREAKVQWKVDNALQSGNSQESVTEQDSKDSTYSLSSTLTLSKADYEKHKVYACEVTHQGLSSPVTKSFNRGEC
- EC50 (read off the curve) [3]: ~0.8 nM
